In US20040142862A1, “Methods and compositions for modulating agonist-induced downregulation of G protein-coupled receptors” (The Regents of the University of California, priority 2002, published 2004):
Entries after “also recorded” stand apart in the source; their conditions may differ.

Legend:
D MOR [1] = test: Agonist-induced downregulation of D MOR, radioligand binding; type: cell-based; details: 10 μM, 3 hours
From the text: (§1) Agonist-induced downregulation can be determined by any of a variety of methods, including those described herein. For example, cell surface receptors can be measured and/or receptor proteolysis or localization in lysozomes can be determined. Alternatively, receptor downregulation can be determined indirectly by measuring desensitization of receptors after activation with an agonist. Desensitization can be determined, for example, by measuring a biological effect that is mediated by the receptor. (See FIG. 1 for examples of each of these methods.) Generally, it will be most convenient to measure cell surface receptors using a radio- or immunoassay. An exemplary radioligand binding assay useful for determining agonist-induced downregulation is described in Example 1. (See FIG. 1A and Reference 16.) Briefly, cells expressing the cell surface receptor of interest are incubated with a suitable agonist under conditions designed to provide a saturating concentration of agonist over the incubation period. After agonist treatment, the cells are recovered and assayed for radioligand binding. […]
(§2) (See 18 and 45 for the DOR and MOR expression constructs, respectively.) Cells were then chilled on ice, washed extensively and total opioid radioligand binding sites were determined for each cell line (16). […]

MOR [2] = target: T1, MOR (Mus musculus, UniProt P42866); test: Agonist-induced downregulation of MOR, radioligand binding; type: cell-based; details: 10 μM, 3 hours
From the text: as §1, §2

D MOR [3] = test: Membrane adenylyl cyclase assay, D MOR cells; type: cell-based
Experimental: (§3) 21. Membrane adenylyl cyclase assays were performed as previously described (9).

MOR [4] = target: T1, MOR; test: Membrane adenylyl cyclase assay, MOR cells; type: cell-based
Experimental: as §3

MOR [5] = target: T1, MOR; test: Colocalization of MOR with LAMP1 and LAMP2; type: cell-based; details: 5 μM, 90 min
[6] = target: epitope (FLAG)-tagged delta opioid receptor (DOR-1), full length, stably expressed in HEK293 cells (UniProt P32300); test: co-immunoprecipitation: receptor immunoprecipitated, blotted for GASP1
[7] = target: epidermal growth factor (EGF) receptor (Homo sapiens, UniProt P00533); test: EGFR assay, ligand-induced downregulation of EGF receptor; type: cell-based; details: EGF 30 minutes or 3 hours
Experimental: 32. EGFR assay: Cells expressing only endogenous GASP1 and cells overexpressing GFP-cGASP1 (>40×) were grown to 80% confluency and treated with 5 μM EGF in DMEM for the indicated times or left untreated. Cells were washed with PBS, EGF receptor was immunoprecipitated with Rabbit anti EGFR-affinity resin (Santa Cruz Biotechnology), separated by SDS page and immunoblotted with goat anti-EGFR antibodies (Santa Cruz Biotechnology), followed by HRP-conjugated anti-goat secondary (Jackson Immunoresearch) and development with ECL reagents (Amersham).

DOR [8] = target: T2, DOR (Mus musculus, UniProt P32300); test: Biotin protection-degradation assay, endocytosed DOR; type: cell-based; details: cells overexpressing cGASP1 vs DOR alone, agonist 3 hours
T2 construct: co-immunoprecipitated specifically with full length DOR but not with MOR expressed at similar levels; expressed in transfected cells
Experimental: (§4) 17. Biotin protection-degradation assay for proteolysis of surface-biotinylated receptors following endocytosis: Cells were grown to 80% confluency washed 2 times with cold phosphate buffered saline (PBS) then incubated in 3 μg/ml cleavable biotin (Pierce) in PBS at 4° C. for 30 minutes with gentle agitation. Cells were washed 2 times with Tris buffered saline and placed back into medium for treatment. Cells labeled “100% biotinylated” were left on ice in PBS. Cells labeled “100% stripped” were also left on ice in PBS then stripped as described below. Cells were treated with 5 μM agonist for 30 minutes or 3 hours, washed 2 times with cold PBS and the remaining cell surface biotinylated receptors were stripped in 50 mM glutathione, 0.3 M NaCl, 75 mM NaOH, 1% fetal bovine serum at 4° C. for 30 minutes. Glutathione was quenched with a 20 minute wash of PBS with 50 mM iodoacetamide, 1% bovine serum albumin. Cells were extracted in 0.1% Triton X-100, 150 mM NaCl, 25 mM KCl, 10 mM Tris-HCl pH 7.4 containing 1 μM leupeptin, 1 μM pepstatin A, 1 μM aprotinin, 2.5 μM Pefabloc SC, and cell debris was removed by centrifugation at 10,000×g for 10 minutes at 4° C. Receptors were immunoprecipitated using M2 antibody (Sigma), rabbit anti mouse linker (Jackson Immunoresearch) and protein A sepharose (Pharmacia) overnight. […]

[9] = target: T3, endogenous GASP1 binding to DOR (Mus musculus, UniProt P32300); test: Competition with endogenous GASP1 for DOR binding in cells (co-immunoprecipitation); type: cell-based; details: overexpressed approximately 40 fold over endogenous GASP1
T3 construct: co-immunoprecipitated specifically with full length DOR but not with MOR expressed at similar levels; expressed in transfected cells; host or cells: HEK293 stably expressing DOR (GASP1 endogenous)
Experimental: 30. Assay for coimmunoprecipitation of cGASP1 with opioid receptors: Cells were grown to confluency, washed 2 times with PBS and lysed in 0.1% Triton X-100, 150 mM NaCl, 25 mM KCl, 10 mM Tris-HCl pH 7.4 containing 1 μM leupeptin, 1 μM pepstatin A, 1 μM aprotinin, 2.5 μM Pefabloc SC, and cell debris was removed by centrifugation at 10,000×g for 10 minutes at 4° C. An aliquot of lysate was removed for GASP1 control blot. Lysate was incubated with M2 affinity resin (Sigma) overnight. Pellets were extensively washed and incubated with PNGase (NEB) for 2 hours at 37° C. to degycosylate receptor protein. Samples were eluted in SDS sample buffer. For co-immunoprecipitation with endogenous GASP1, one fourth of eluate was separated by SDS-PAGE on a 12% gel (receptor blot), three quarters on a 7% gel (GASP1 blot). For co-immunoprecipitation with cGASP1 eluate was run on a 12% gel that was later cut and blotted separately for cGASP1 and receptor. Proteins were transferred to nitrocellulose. GASP1 blots were incubated for 2 hours with rabbit anti-GASP1 (1:4000). cGASP1 blots were incubated with rabbit anti-GFP antibodies for 2 hours (1:200) (Clonetech). Both were followed by 1 hour with horseradish peroxidase (HRP)-conjugated anti-rabbit antibody (NEB) (1:3000), and visualized with ECL plus (Amersham). […]

B2AR-Ala [10] = target: T4, B2AR-Ala (Homo sapiens, UniProt P07550); test: Co-immunoprecipitation with B2AR-Ala; type: binding; details: cells stably expressing B2AR-Ala and GFP-cGASP1
T4 construct: expressed in transfected cells
From the text: The ability of GASP1 to bind to the B2AR tail in vitro was initially surprising, since the B2AR recycles efficiently after agonist-induced endocytosis and is relatively resistant to proteolysis in HEK293 cells (35). It has been shown previously that efficient recycling of the B2AR in these cells requires the actin cytoskeleton and a distinct set of protein interactions with the distal tip of the cytoplasmic tail (7). Adding a single alanine residue to the carboxyl terminus of the B2AR specifically disrupts this “recycling protein” interaction, creating a mutant B2AR (B2AR-Ala) that is sorted to lysosomes after agonist-induced endocytosis (7) (and see this study FIG. 5C) much like DOR (FIG. 1B). […] Consistent with this, GFP-cGASP1 co-immunoprecipited with B2AR-Ala (FIG. 5B) (30). Furthermore, overexpression of GFP-cGASP1 inhibited degradation of internalized B2AR-Ala (FIG. 5C), providing evidence for a functional role of the GASP1 protein interaction in lysosomal sorting of a non-opioid GPCR.
30. Assay for coimmunoprecipitation of cGASP1 with opioid receptors: Cells were grown to confluency, washed 2 times with PBS and lysed in 0.1% Triton X-100, 150 mM NaCl, 25 mM KCl, 10 mM Tris-HCl pH 7.4 containing 1 μM leupeptin, 1 μM pepstatin A, 1 μM aprotinin, 2.5 μM Pefabloc SC, and cell debris was removed by centrifugation at 10,000×g for 10 minutes at 4° C. […]

DOR [11] = target: T2, DOR; test: Agonist-induced downregulation of DOR, radioligand binding; type: cell-based; details: 5 μM DADLE 3 hours
B2AR-Ala [12] = target: T4, B2AR-Ala; test: Biotin protection-degradation assay, endocytosed B2AR-Ala; type: cell-based; details: cells overexpressing cGASP1 vs B2AR-Ala alone, isoproterenol
Experimental: as §4

cytoplasmic tail of DOR = target: T5, cytoplasmic tail of DOR (Mus musculus, UniProt P32300); test: GST affinity chromatography, binding to DOR cytoplasmic tail; details: in vitro
T5 construct: GST; made in house
T5 sequence (P32300 312-371): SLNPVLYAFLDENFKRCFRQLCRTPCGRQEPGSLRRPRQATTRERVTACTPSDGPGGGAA
Experimental: Sequence homology to a non-mammalian protein was observed between the carboxyl-terminal regions of GASP1 and Vac8p, a yeast protein involved in late endocytic trafficking (26).
24. Affinity chromatography was carried out as previously described (25).

[13] = agonist 3 hours, washout, 10 μM naloxone 30 minutes

CC(C)C[C@@H](NC(=O)[C@H](Cc1ccccc1)NC(=O)CNC(=O)[C@@H](C)NC(=O)[C@@H](N)Cc1ccc(O)cc1)C(=O)O [DADLE, Tyr-D-Ala-Gly-Phe-D-Leu]
agonist-induced downregulation of D MOR (total opioid radioligand binding sites) (D MOR [1]): significant downregulation
agonist-induced downregulation of MOR (total opioid radioligand binding sites) (MOR [2]): not substantially downregulated

C[C@@H](NC(=O)[C@@H](N)Cc1ccc(O)cc1)C(=O)NCC(=O)N(C)[C@@H](Cc1ccccc1)C(=O)NCCO [DAMGO]
desensitization of D MOR (D MOR [3]; 5 μM, 10 minute exposure): Rapid desensitization
resensitization of D MOR (D MOR [3]; [13]): neither DOR nor D MOR resensitized significantly
desensitization of MOR (MOR [4]; 5 μM, 10 minute exposure): Rapid desensitization
resensitization of MOR (MOR [4]; [13]): recovered their ability to mediate agonist-dependent inhibition of adenylyl cyclase
colocalization of MOR with LAMP after agonist (MOR [5]): not colocalized with LAMP

endogenous GASP1 of HEK293 cells
percent of endogenous GASP1 immunoprecipitated with DOR [6]: < 1%
percent of total endogenous GASP1 coimmunoprecipitated with DOR [6]: < 1%

B1: GFP-cGASP1: GFP-tagged version of cGASP1 stably overexpressed in HEK293 cells (protein)
chain: SETEEETIFGSWFWDGKEVSEEAGPCCVSKPEDDEEMIVESWFWSRDKAIKETGTVATCESKPENEEGAIVGSWFEAEDEVDNRTDNGSNCGSRTLADEDEAIVGSWFWAGDEAHFESNPSPVFRAICRSTCSVEQEPDPSRRPQSWEEVTVQFKPGPWGRVGFPSISPFRFPKEAASLFCEMFGGKPRNMVLSPEGEDQESLLQPDQPSPEFPFQYDPSYRSVQEIREHLRAKESTEPESSSCNCIQCELKIGSEEFEELLLLMEKIRDPFIHEISKIAMGMRSASQFTRDFIRDSGVVSLIETLLNYPSSRVRTSFLENMIRMAPPYPNLNIIQTYICKVCEETLAYSVDSPEQLSGIRMIRHLTTTTDYHTLVANYMSGFLSLLATGNAKTRFHVLKMLLNLSENLFMTKELLSAEAVSEFIGLFNREETNDNIQIVLAIFENIGNNIKKETVFSDDDFNIEPLISAFHKVEKFAKELQGKTDNQNDPEGDQEN
modifications: left off: large carriers; small tags and cut ends
notes: GFP-tagged version of cGASP1 stably overexpressed in HEK293 cells
effect on downregulation of the EGF receptor [7]: unaffected
stability of endocytosed DOR (post-endocytic proteolysis) (DOR [8]): significantly more stable
competition with endogenous GASP1 for binding to DOR in vivo [9]: substantially reduced the amount of endogenous GASP1 recovered in DOR immunoprecipitates; also recorded: competes with endogenous GASP1 for binding to DOR in vivo
binding to B2AR-Ala in vivo (co-immunoprecipitation) (B2AR-Ala [10]): binds in vivo

B2: cGASP1: carboxyl-terminal fragment of the GASP1 protein, corresponding to the C-terminal 497 residues of GASP1 (protein)
chain: SETEEETIFGSWFWDGKEVSEEAGPCCVSKPEDDEEMIVESWFWSRDKAIKETGTVATCESKPENEEGAIVGSWFEAEDEVDNRTDNGSNCGSRTLADEDEAIVGSWFWAGDEAHFESNPSPVFRAICRSTCSVEQEPDPSRRPQSWEEVTVQFKPGPWGRVGFPSISPFRFPKEAASLFCEMFGGKPRNMVLSPEGEDQESLLQPDQPSPEFPFQYDPSYRSVQEIREHLRAKESTEPESSSCNCIQCELKIGSEEFEELLLLMEKIRDPFIHEISKIAMGMRSASQFTRDFIRDSGVVSLIETLLNYPSSRVRTSFLENMIRMAPPYPNLNIIQTYICKVCEETLAYSVDSPEQLSGIRMIRHLTTTTDYHTLVANYMSGFLSLLATGNAKTRFHVLKMLLNLSENLFMTKELLSAEAVSEFIGLFNREETNDNIQIVLAIFENIGNNIKKETVFSDDDFNIEPLISAFHKVEKFAKELQGKTDNQNDPEGDQEN
effect on agonist-induced downregulation of DOR (DOR [11]; cGASP1 overexpressed 30 fold over endogenous GASP1): less significantly
effect on agonist-induced downregulation of DOR (DOR [11]; cGASP1 overexpressed 40-fold over endogenous GASP1): significantly inhibited
stability of endocytosed B2AR-Ala (post-endocytic proteolysis) (B2AR-Ala [12]): significantly more stable
input recovered on washed GST-DOR (cytoplasmic tail of DOR): 3-5%
